Measured values from publication PMC7269131.

Target: Factor XIIIA (the A-subunit of coagulation Factor XIII), zymogen (UniProt P00488)
Assay: AUC

percent dissociated to monomers after 6 h in 25 mM CaCl2: 80%
Substance: Factor XIIIA (the A-subunit of coagulation Factor XIII), zymogen (from UniProt P00488 1-732) (enzyme)
